In paper PMC3359993, “Polydnavirus Ank Proteins Bind NF-κB Homodimers and Inhibit Processing of Relish” (PLoS Pathogens, 2012):

Columns and labels:
[1] = biological target: the molecule itself; test: SEC; gel filtration of each purified recombinant protein, compared with molecular mass standards
[2] = biological target: T1, Cactus, truncated form consisting of its ankyrin repeat domain, N-terminal His tag (Drosophila melanogaster); test: SPR; Biacore 3000, room temperature; IkB or Ank immobilised on CM5 by amine coupling (about 5500 RU); Rel homodimer as analyte, kinetic titration, five doubling injections (typically 160 nM to 2.56 uM), 60 or 90 s, 30 uL/min; 10 mM HEPES pH 7.4, 150 mM NaCl, 3.4 mM EDTA, 0.005% P20; 1:1 Langmuir fit; details: both partners purified
T1 chain: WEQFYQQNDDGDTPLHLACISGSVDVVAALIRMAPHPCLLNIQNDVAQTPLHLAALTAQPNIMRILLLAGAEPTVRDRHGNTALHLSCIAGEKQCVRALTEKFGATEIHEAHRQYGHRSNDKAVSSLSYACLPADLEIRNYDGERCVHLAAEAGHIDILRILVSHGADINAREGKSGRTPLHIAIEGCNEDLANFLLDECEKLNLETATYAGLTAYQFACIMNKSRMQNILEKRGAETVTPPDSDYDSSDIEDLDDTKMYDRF

[3] = biological target: T2, Dif, truncated (RHD, NLS and 20 additional C-terminal residues), StrepTagII-tagged (Drosophila melanogaster); test: SPR; Biacore 3000, room temperature; Dif immobilised on CM5 by amine coupling, Cactus as analyte (Table 1); kinetic titration; 10 mM HEPES pH 7.4, 150 mM NaCl, 3.4 mM EDTA, 0.005% P20; 1:1 Langmuir fit; details: both partners purified
T2 chain: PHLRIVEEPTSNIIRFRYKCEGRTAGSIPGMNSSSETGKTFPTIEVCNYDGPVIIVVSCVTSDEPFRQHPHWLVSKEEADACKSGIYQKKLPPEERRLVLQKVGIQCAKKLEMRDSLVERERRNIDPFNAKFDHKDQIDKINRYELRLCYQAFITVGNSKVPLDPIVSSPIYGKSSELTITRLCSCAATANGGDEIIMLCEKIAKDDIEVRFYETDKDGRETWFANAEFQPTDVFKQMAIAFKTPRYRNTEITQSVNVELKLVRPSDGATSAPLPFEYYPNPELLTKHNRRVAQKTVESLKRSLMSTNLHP

[4] = biological target: T3, Rel-49, the C-terminal IkB domain of Relish, N-terminal StrepTagII and C-terminal His tag (Drosophila melanogaster); test: SPR; Biacore 3000, room temperature; IkB or Ank immobilised on CM5 by amine coupling (about 5500 RU); Rel homodimer as analyte, kinetic titration, five doubling injections (typically 160 nM to 2.56 uM), 60 or 90 s, 30 uL/min; 10 mM HEPES pH 7.4, 150 mM NaCl, 3.4 mM EDTA, 0.005% P20; 1:1 Langmuir fit; details: both partners purified
T3 construct: Rel-49, the C-terminal IkB fragment that is left after cleavage of compound Relish (Rel-110), Drosophila, GenBank AAF54333; Cloned without a stop codon into pET51-EK-LIC; source: E. coli BL21 (DE3), purified
T3 sequence (Q94527 whole entry, looked up): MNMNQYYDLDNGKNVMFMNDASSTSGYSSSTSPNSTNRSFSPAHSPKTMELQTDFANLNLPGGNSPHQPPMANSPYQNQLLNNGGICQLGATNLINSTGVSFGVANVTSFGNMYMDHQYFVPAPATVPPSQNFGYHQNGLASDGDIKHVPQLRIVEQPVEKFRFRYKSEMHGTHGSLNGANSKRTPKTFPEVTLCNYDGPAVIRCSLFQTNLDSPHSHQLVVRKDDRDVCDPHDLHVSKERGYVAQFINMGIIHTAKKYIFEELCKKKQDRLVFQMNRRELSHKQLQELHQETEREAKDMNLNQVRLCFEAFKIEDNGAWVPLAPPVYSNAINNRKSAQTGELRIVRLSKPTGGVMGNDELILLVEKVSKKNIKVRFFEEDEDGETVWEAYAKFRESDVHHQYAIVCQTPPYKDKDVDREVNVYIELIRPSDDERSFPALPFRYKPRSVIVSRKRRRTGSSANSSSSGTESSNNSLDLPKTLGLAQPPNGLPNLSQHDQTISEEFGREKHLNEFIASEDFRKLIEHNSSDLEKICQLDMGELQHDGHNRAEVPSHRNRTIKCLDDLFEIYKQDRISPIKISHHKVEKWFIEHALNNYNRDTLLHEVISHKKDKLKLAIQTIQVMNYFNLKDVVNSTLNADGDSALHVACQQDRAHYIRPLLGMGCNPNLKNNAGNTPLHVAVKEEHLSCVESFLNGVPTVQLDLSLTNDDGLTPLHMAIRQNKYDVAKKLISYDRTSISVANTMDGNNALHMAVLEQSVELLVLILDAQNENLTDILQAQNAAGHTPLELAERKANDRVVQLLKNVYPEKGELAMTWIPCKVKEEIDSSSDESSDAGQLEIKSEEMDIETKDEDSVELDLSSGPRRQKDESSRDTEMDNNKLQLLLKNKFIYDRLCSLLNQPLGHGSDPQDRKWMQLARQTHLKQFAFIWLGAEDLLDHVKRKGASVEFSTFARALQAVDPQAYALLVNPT

[5] = biological target: T4, Ank-H4 of Microplitis demolitor bracovirus, full length, N-terminal His tag (Microplitis demolitor bracovirus (MdBV)); test: as above; details: both partners purified
T4 construct: Ank-H4, Microplitis demolitor bracovirus (MdBV), GenBank AY875685; consists of only an ankyrin repeat domain; amplified from MdBV genomic DNA; pET-30-EK-LIC; source: E. coli BL21 (DE3), purified (Ni-NTA); not shown: His6, N-terminal, kept
T4 sequence (Q5I144 whole entry, the tested form may be a part): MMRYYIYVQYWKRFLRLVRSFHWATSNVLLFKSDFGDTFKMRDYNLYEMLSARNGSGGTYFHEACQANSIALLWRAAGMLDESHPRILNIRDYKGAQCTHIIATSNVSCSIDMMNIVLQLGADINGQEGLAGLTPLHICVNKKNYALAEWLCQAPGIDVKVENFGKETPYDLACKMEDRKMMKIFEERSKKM

[6] = biological target: T2, Dif, truncated (RHD, NLS and 20 …); test: SEC; gel filtration of each purified recombinant protein, compared with molecular mass standards; details: both partners purified

B1: Dif, truncated (RHD, NLS and 20 additional C-terminal residues), N-terminal thioredoxin fusion (domain or fragment)
chain: PHLRIVEEPTSNIIRFRYKCEGRTAGSIPGMNSSSETGKTFPTIEVCNYDGPVIIVVSCVTSDEPFRQHPHWLVSKEEADACKSGIYQKKLPPEERRLVLQKVGIQCAKKLEMRDSLVERERRNIDPFNAKFDHKDQIDKINRYELRLCYQAFITVGNSKVPLDPIVSSPIYGKSSELTITRLCSCAATANGGDEIIMLCEKIAKDDIEVRFYETDKDGRETWFANAEFQPTDVFKQMAIAFKTPRYRNTEITQSVNVELKLVRPSDGATSAPLPFEYYPNPELLTKHNRRVAQKTVESLKRSLMSTNLHPSKQV
For B1, the “stoichiometry N” value [1] was 2.

B2: Dorsal, truncated (RHD, NLS and 20 additional C-terminal residues), StrepTagII-tagged (domain or fragment)
chain: PYVKITEQPAGKALRFRYECEGRSAGSIPGVNSTPENKTYPTIEIVGYKGRAVVVVSCVTKDTPYRPHPHNLVGKEGCKKGVCTLEINSETMRAVFSNLGIQCVKKKDIEAALKAREEIRVDPFKTGFSHRFQPSSIDLNSVRLCFQVFMESEQKGRFTSPLPPVVSEPIFDKKAMSDLVICRLCSCSATVFGNTQIILLCEKVAKEDISVRFFEEKNGQSVWEAFGDFQHTDVHKQTAITFKTPRYHTLDITEPAKVFIQLRRPSDGVTSEALPFEYVPMDSDPAHLRRKRQKTGGDPMHLLLQQQQKQQLQN
modifications: Limits come from the Table S1 cactus primers. The forward primer, after the LIC extension …, encodes WEQFYQQN. The reverse primer encodes DTKMYDRF followed by a stop. Positions were …
With B2 the Kd [2] was 195 nM, the koff [2] was 0.00193 s⁻¹ and the kon [2] was 9890 M⁻¹ s⁻¹.

B3: Cactus, truncated form consisting of its ankyrin repeat domain, N-terminal His tag (domain or fragment)
chain: T1 chain
modifications: Limits come from the Table S1 cactus primers. The forward primer, after the LIC extension …, encodes WEQFYQQN. The reverse primer encodes DTKMYDRF followed by a stop. Positions were …
B3 was tested, and the Kd [3] was 110 nM, the koff [3] was 0.00578 s⁻¹ and the kon [3] was 52500 M⁻¹ s⁻¹.

B4: Relish, truncated (RHD, NLS and 20 additional C-terminal residues), StrepTagII-tagged (domain or fragment)
chain: KHVPQLRIVEQPVEKFRFRYKSEMHGTHGSLNGANSKRTPKTFPEVTLCNYDGPAVIRCSLFQTNLDSPHSHQLVVRKDDRDVCDPHDLHVSKERGYVAQFINMGIIHTAKKYIFEELCKKKQDRLVFQMNRRELSHKQLQELHQETEREAKDMNLNQVRLCFEAFKIEDNGAWVPLAPPVYSNAINNRKSAQTGELRIVRLSKPTGGVMGNDELILLVEKVSKKNIKVRFFEEDEDGETVWEAYAKFRESDVHHQYAIVCQTPPYKDKDVDREVNVYIELIRPSDDERSFPALPFRYKPRSVIVSRKRRRTGSSANSSSSGTESSNNSLD
modifications: Limits come from the Table S1 cactus primers. The forward primer, after the LIC extension …, encodes WEQFYQQN. The reverse primer encodes DTKMYDRF followed by a stop. Positions were …
Work on B4 yielded a Kd [2] of 2190 nM, a koff [2] of 0.00241 s⁻¹ and a kon [2] of 1100 M⁻¹ s⁻¹.

B5: Dif, truncated (RHD, NLS and 20 additional C-terminal residues), StrepTagII-tagged (domain or fragment)
chain: T2 chain
modifications: homodimer by gel filtration; StrepTagII left out. Limits: RHD start 78 and NLS end 368 from UniProt features, plus 20 residues; exact limits are only in Figure 1A
Work on B5 yielded a Kd [4] of 1840 nM, a koff [4] of 0.000966 s⁻¹ and a kon [4] of 524 M⁻¹ s⁻¹. The Kd [5] was 581 nM, the koff [5] was 0.00384 s⁻¹ and the kon [5] was 6620 M⁻¹ s⁻¹.

B6: Dif, truncated (RHD, NLS and 20 additional C-terminal residues), StrepTagII-tagged (domain or fragment)
chain: T2 chain
modifications: homodimer by gel filtration; StrepTagII left out. Limits: RHD start 78 and NLS end 368 from UniProt features, plus 20 residues; exact limits are only in Figure 1A / homodimer by gel filtration …
B6 was tested, and the “stoichiometry N” value [6] was 2.
